B1: LINE1-full (parent)
chain: UACGUAGGUGGUUUUCCCCUGAUAGUGCUAAGGGGGCCUGGAAGUUUGGACUGGGCAGAGCUCAACACAGCGUGGCAAAGUGGCUGUGGCUAGACUGCCUCUCUGGAUUCCUCGUCACUCAGCAGGGCAUCUCUGAGAGAAAUGCC

Variants of B1 are the subject of this data set. As to the kind of experiment: self-cleavage, relative activity (ratio to wild type); higher = more cleavage; in vitro, sequencing; the parent is a self-cleaving ribozyme.
Consider UACGUAGGUGGUUUUCCCCUGAUAGUGCUAAGGGGGCCUGGAAGUUUGGACUGGGCAGAGCUCAACACAGCGUGGCAAAGUGGCUGUGGCUAGGCUGCCUCUCUGGAUUCCCCGUCACUCAGCAGGGCAUCUCUGAGAGAAAUGCC [A94G U112C], for which the self-cleavage was found to be 0.13. For the variant UACGUAGGUGGUUUUCCCCUGAUAGUGCUAAGGGGGCCUGGAAGUUUGGACUGGGCAGAGCUCAACACAGCGUGGCAAAGUGGCUGUGGCUAGGCUGCCUCUCUGGAUACCUCGUCACUCAGCAGGGCAUCUCUGAGAGAAAUGCC [A94G U109A], the self-cleavage worked out at 0.39. Next, UACGUAGGUGGUUUUCCCCUGAUAGUGCUAAGGGGGCCUGGAAGUUUGGACUGGGCAGAGCUCAACACAGCGUGGCAAAGUGGCUGUGGCUAGGCUGCCUCUCUGGAUCCCUCGUCACUCAGCAGGGCAUCUCUGAGAGAAAUGCC [A94G U109C]: 0.07; UACGUAGGUGGUUUUCCCCUGAUAGUGCUAAGGGGGCCUGGAAGUUUGGACUGGGCAGAGCUCAACACAGCGUGGCAAAGUGGCUGUGGCUAGGCUGCCUCUCUGGAUUCCUCGUCACUCAGCAGGGCAUCUCUGAGCGAAAUGCC [A94G A138C]: 0.22. Take UACGUAGGUGGUUUUCCCCUGAUAGUGCUAAGGGGGCCUGGAAGUUUGGACUGGGCAGAGCUCAACACAGCGUGGCAAAGUGGCUGUGGCUAGGCUGCCUCUCUGGAUUCCUCGUCACUCAGCAGGGCAUCUCUGAGUGAAAUGCC [A94G A138U]: the self-cleavage worked out at 0.36. The same measure for UACGUAGGUGGUUUUCCCCUGAUAGUGCUAAGGGGGCCUGGAAGUUUGGACUGGGCAGAGCUCAACACAGCGUGGCAAAGUGGCUGUGGCUAGCCUGCCUCUCUGGAUUCCUCGUCACUCAGCAGGGCACCUCUGAGAGAAAUGCC [A94C U130C]: 0.09; for UACGUAGGUGGUUUUCCCCUGAUAGUGCUAAGGGGGCCUGGAAGUUUGGACUGGGCAGAGCUCAACACAGCGUGGCAAAGUGGCUGUGGCUAGCCUGCCUCUCUGGAUUCCUCGUCACUCAGCAGGGCGUCUCUGAGAGAAAUGCC [A94C A129G]: 0. As for UACGUAGGUGGUUUUCCCCUGAUAGUGCUAAGGGGGCCUGGAAGUUUGGACUGGGCAGAGCUCAACACAGCGUGGCAAAGUGGCUGUGGCUAGGCUGCCUCUCUGGAUUCCUCGUCACUCAGCAGGGCAUCUCUGAGAGAAAUGUC [A94G C145U], the self-cleavage was 0.17. Next, UACGUAGGUGGUUUUCCCCUGAUAGUGCUAAGGGGGCCUGGAAGUUUGGACUGGGCAGAGCUCAACACAGCGUGGCAAAGUGGCUGUGGCUAGCCUGCCUCUCUGGAUUCCUCGUCACUCAGCAGGGCAUCUCCGAGAGAAAUGCC [A94C U134C]: 0.09.

With UACGUAGGUGGUUUUCCCCUGAUAGUGCUAAGGGGGCCUGGAAGUUUGGACUGGGCAGAGCUCAACACAGCGUGGCAAAGUGGCUGUGGCUAGGCUGCUUCUCUGGAUUCCUCGUCACUCAGCAGGGCAUCUCUGAGAGAAAUGCC [A94G C99U], the self-cleavage came to 0.19.

Turning to UACGUAGGUGGUUUUCCCCUGAUAGUGCUAAGGGGGCCUGGAAGUUUGGACUGGGCAGAGCUCAACACAGCGUGGCAAAGUGGCUGUGGCUAGGCUGCCUCUCAGGAUUCCUCGUCACUCAGCAGGGCAUCUCUGAGAGAAAUGCC [A94G U104A], the self-cleavage is 0.22. The same measure for UACGUAGGUGGUUUUCCCCUGAUAGUGCUAAGGGGGCCUGGAAGUUUGGACUGGGCAGAGCUCAACACAGCGUGGCAAAGUGGCUGUGGCUAGGCUGCCCCUCUGGAUUCCUCGUCACUCAGCAGGGCAUCUCUGAGAGAAAUGCC [A94G U100C]: 0.44; for UACGUAGGUGGUUUUCCCCUGAUAGUGCUAAGGGGGCCUGGAAGUUUGGACUGGGCAGAGCUCAACACAGCGUGGCAAAGUGGCUGUGGCUAGGCUGCCACUCUGGAUUCCUCGUCACUCAGCAGGGCAUCUCUGAGAGAAAUGCC [A94G U100A]: 0.21; for UACGUAGGUGGUUUUCCCCUGAUAGUGCUAAGGGGGCCUGGAAGUUUGGACUGGGCAGAGCUCAACACAGCGUGGCAAAGUGGCUGUGGCUAGGCUGCCUCUCUGGAUUCCUCGUUACUCAGCAGGGCAUCUCUGAGAGAAAUGCC [A94G C116U]: 0.28. UACGUAGGUGGUUUUCCCCUGAUAGUGCUAAGGGGGCCUGGAAGUUUGGACUGGGCAGAGCUCAACACAGCGUGGCAAAGUGGCUGUGGCUAGGCUGCCUCUCUGGAUUCCUCGACACUCAGCAGGGCAUCUCUGAGAGAAAUGCC [A94G U115A]: the self-cleavage is 0.34. With UACGUAGGUGGUUUUCCCCUGAUAGUGCUAAGGGGGCCUGGAAGUUUGGACUGGGCAGAGCUCAACACAGCGUGGCAAAGUGGCUGUGGCUAGGCUGCCUCUCUGGAUUCCUCGCCACUCAGCAGGGCAUCUCUGAGAGAAAUGCC [A94G U115C], the self-cleavage came to 0.45. Consider UACGUAGGUGGUUUUCCCCUGAUAGUGCUAAGGGGGCCUGGAAGUUUGGACUGGGCAGAGCUCAACACAGCGUGGCAAAGUGGCUGUGGCUAGGCUGCCUCUCUGGAUUCCUCGUCACUCAGCAGGGCAUCUCUGAGAGAAAUGCC [A94G], for which the self-cleavage came out at 0.31. The same measure for UACGUAGGUGGUUUUCCCCUGAUAGUGCUAAGGGGGCCUGGAAGUUUGGACUGGGCAGAGCUCAACACAGCGUGGCAAAGUGGCUGUGGCUAGCCUGCCUCUCUGGAUUCCUCGACACUCAGCAGGGCAUCUCUGAGAGAAAUGCC [A94C U115A]: 0.1; for UACGUAGGUGGUUUUCCCCUGAUAGUGCUAAGGGGGCCUGGAAGUUUGGACUGGGCAGAGCUCAACACAGCGUGGCAAAGUGGCUGUGGCUAGGCUGCCUCUCUGGAUUCCUCGUCACUCAGCAGGGCAUCUCUGGGAGAAAUGCC [A94G A136G]: 0.34; for UACGUAGGUGGUUUUCCCCUGAUAGUGCUAAGGGGGCCUGGAAGUUUGGACUGGGCAGAGCUCAACACAGCGUGGCAAAGUGGCUGUGGCUAGGCUGCCUCUCUGGAUUCCUCGUCACUCAGCAGGGCAUCUCUGAGAGUAAUGCC [A94G A140U]: 0.33. Take UACGUAGGUGGUUUUCCCCUGAUAGUGCUAAGGGGGCCUGGAAGUUUGGACUGGGCAGAGCUCAACACAGCGUGGCAAAGUGGCUGUGGCUAGCCUGCCUCUCUGGAUUCCUCGUCACUCAGCAGGGCAUCUCUGAGAGGAAUGCC [A94C A140G]: the self-cleavage stood at 0.04. Regarding UACGUAGGUGGUUUUCCCCUGAUAGUGCUAAGGGGGCCUGGAAGUUUGGACUGGGCAGAGCUCAACACAGCGUGGCAAAGUGGCUGUGGCUAGGCUGCCUCUCUGGAUUCCUCGUCACUCAGCAGGGCAUCCCUGAGAGAAAUGCC [A94G U132C], the self-cleavage was found to be 0.34. As to UACGUAGGUGGUUUUCCCCUGAUAGUGCUAAGGGGGCCUGGAAGUUUGGACUGGGCAGAGCUCAACACAGCGUGGCAAAGUGGCUGUGGCUAGGCUGCCUCUCUGGAUUCCUCGUCACUCAGCAGGGCAUCUCUGAGAGAGAUGCC [A94G A141G], the self-cleavage stood at 0.25. Take UACGUAGGUGGUUUUCCCCUGAUAGUGCUAAGGGGGCCUGGAAGUUUGGACUGGGCAGAGCUCAACACAGCGUGGCAAAGUGGCUGUGGCUAGGCUGCCUCACUGGAUUCCUCGUCACUCAGCAGGGCAUCUCUGAGAGAAAUGCC [A94G U102A]: the self-cleavage was 0.27. For the variant UACGUAGGUGGUUUUCCCCUGAUAGUGCUAAGGGGGCCUGGAAGUUUGGACUGGGCAGAGCUCAACACAGCGUGGCAAAGUGGCUGUGGCUAGGCUGCCUCUCUGGAUUCCUCGUCACUCAGCAGGGCGUCUCUGAGAGAAAUGCC [A94G A129G], the self-cleavage was found to be 0.11.

Consider UACGUAGGUGGUUUUCCCCUGAUAGUGCUAAGGGGGCCUGGAAGUUUGGACUGGGCAGAGCUCAACACAGCGUGGCAAAGUGGCUGUGGCUAGGCUGCCUCUCUGGAUUCCUCGUCACUCAGCAGGGCAUCUCUGAGAGAAAUGCU [A94G C146U], for which the self-cleavage amounted to 0.47. Next, UACGUAGGUGGUUUUCCCCUGAUAGUGCUAAGGGGGCCUGGAAGUUUGGACUGGGCAGAGCUCAACACAGCGUGGCAAAGUGGCUGUGGCUAGGCUGCCUCUCUGGAUUCCUCGUCACUCAGCAGGGCACCUCUGAGAGAAAUGCC [A94G U130C]: 0.36; UACGUAGGUGGUUUUCCCCUGAUAGUGCUAAGGGGGCCUGGAAGUUUGGACUGGGCAGAGCUCAACACAGCGUGGCAAAGUGGCUGUGGCUAGGCUGCCUCUCUGGAUUCCUCGUCACUCAGCAGGGCAACUCUGAGAGAAAUGCC [A94G U130A]: 0.34; UACGUAGGUGGUUUUCCCCUGAUAGUGCUAAGGGGGCCUGGAAGUUUGGACUGGGCAGAGCUCAACACAGCGUGGCAAAGUGGCUGUGGCUAGGAUGCCUCUCUGGAUUCCUCGUCACUCAGCAGGGCAUCUCUGAGAGAAAUGCC [A94G C95A]: 0.07.

For the variant UACGUAGGUGGUUUUCCCCUGAUAGUGCUAAGGGGGCCUGGAAGUUUGGACUGGGCAGAGCUCAACACAGCGUGGCAAAGUGGCUGUGGCUAGGCUGCCUCUCUGGAUUCCUCGUCACUCAGCAGGUCAUCUCUGAGAGAAAUGCC [A94G G127U], the self-cleavage turned out to be 0.09. The same measure for UACGUAGGUGGUUUUCCCCUGAUAGUGCUAAGGGGGCCUGGAAGUUUGGACUGGGCAGAGCUCAACACAGCGUGGCAAAGUGGCUGUGGCUAGGCUGCCUCUCUGGAUUCCUCGUCACUCAGCACGGCAUCUCUGAGAGAAAUGCC [A94G G125C]: 0.57. As for UACGUAGGUGGUUUUCCCCUGAUAGUGCUAAGGGGGCCUGGAAGUUUGGACUGGGCAGAGCUCAACACAGCGUGGCAAAGUGGCUGUGGCUAGGCUGCCUCUCUGGAUUCCUCAUCACUCAGCAGGGCAUCUCUGAGAGAAAUGCC [A94G G114A], the self-cleavage amounted to 0.23. Next, UACGUAGGUGGUUUUCCCCUGAUAGUGCUAAGGGGGCCUGGAAGUUUGGACUGGGCAGAGCUCAACACAGCGUGGCAAAGUGGCUGUGGCUAGGCUGCCUCUCUGGAUUCCUCGUCCCUCAGCAGGGCAUCUCUGAGAGAAAUGCC [A94G A117C]: 0.26. Next, UACGUAGGUGGUUUUCCCCUGAUAGUGCUAAGGGGGCCUGGAAGUUUGGACUGGGCAGAGCUCAACACAGCGUGGCAAAGUGGCUGUGGCUAGGCUGCCUCUCUGGAUUCCUCGUCGCUCAGCAGGGCAUCUCUGAGAGAAAUGCC [A94G A117G]: 0.36; UACGUAGGUGGUUUUCCCCUGAUAGUGCUAAGGGGGCCUGGAAGUUUGGACUGGGCAGAGCUCAACACAGCGUGGCAAAGUGGCUGUGGCUAGCCUGCCUCUCUGGAUUCCUCGUCACUCAGCAGGGCAUCUCUGGGAGAAAUGCC [A94C A136G]: 0.07; UACGUAGGUGGUUUUCCCCUGAUAGUGCUAAGGGGGCCUGGAAGUUUGGACUGGGCAGAGCUCAACACAGCGUGGCAAAGUGGCUGUGGCUAGGCUGCCUCUCUGGAUUCCUCGUCACUCAGCGGGGCAUCUCUGAGAGAAAUGCC [A94G A124G]: 0.06. The same measure for UACGUAGGUGGUUUUCCCCUGAUAGUGCUAAGGGGGCCUGGAAGUUUGGACUGGGCAGAGCUCAACACAGCGUGGCAAAGUGGCUGUGGCUAGGCUGCCUCUCUGGUUUCCUCGUCACUCAGCAGGGCAUCUCUGAGAGAAAUGCC [A94G A107U]: 0.3. With UACGUAGGUGGUUUUCCCCUGAUAGUGCUAAGGGGGCCUGGAAGUUUGGACUGGGCAGAGCUCAACACAGCGUGGCAAAGUGGCUGUGGCUAGGCUGCCUCUCUGGAUUCCUCGUCACUCAGCAGGGUAUCUCUGAGAGAAAUGCC [A94G C128U], the self-cleavage came out at 0.22. Take UACGUAGGUGGUUUUCCCCUGAUAGUGCUAAGGGGGCCUGGAAGUUUGGACUGGGCAGAGCUCAACACAGCGUGGCAAAGUGGCUGUGGCUAGCCUGCCUCUCUGGAUUCCUCGUCACCCAGCAGGGCAUCUCUGAGAGAAAUGCC [A94C U119C]: the self-cleavage was found to be 0.1.

The values above are taken from the RNAGym collection of RNA variant scans (doi:10.7554/elife.90254).
